Data as given in patent US20110311517A1 (SHENOGEN PHARMA GROUP, published 2011).

B1: human anti-ERα36 ScFv2 (purified, re-natured) (scFv)
scFv: QSALTQPASVSGSPGQSITISCTGTSSDVGGYNYVSWYQQHPGKAPKLMIYDVSKRPSGVSNRFSGSKSGNTASLTISGLQAEDEADYYCSSYTSSSTLVFGGGTKLTVLGSGGSTITSYNVYYTKLSSSGTQVQLLESGAEVKKPGASVKVSCKASGYTFTAYYMHWVRQAPGQGLEWMAMIDPSGSITSYAQKFQGRVTMSRDTSTSTLYMELSSLRSDDTAVYYCARDLKEGFSVPGAFDIWGQGTMVTVSSAS
notes: also called S24; S24A2r2
B2: human anti-ERα36 ScFv6 (purified, re-natured) (scFv)
scFv: EIVMTQSPGTLSLSPGERATLSCRASQSVDSNFLAWYQQRPGQAPRLLIYGVSSSATGIPDRFSGSGSGTDFTLSIDRLEPEDFAVYYCQQYGSSPTFGGGTKLEIKRSGGSTITSYNVYYTKLSSSGTQVQLQESGGGLVQPGRSLRLSCAASGFTFDDYAMHWVRQAPGKGLEWVSGISWNSGSIGYADSVKGRFTISRDNAKNSLYLQMNSLRAEDTAVYYCARSGDYGAFDIWGQGTMVTVSSAS
notes: also called S66; S66A1r1
B3: human anti-ERα36 ScFv7 (purified, re-natured) (scFv)
scFv: QSVLTQPPSVSAAPGQKVTISCSGSSSNIGNNYVSWYQQLPGTAPKLLIYDNNKRPSGIPDRFSGSKSGTSATLGITGLQTGDEADYYCGTWDSSLSAGVFGGGTKLTVLGSGGSTITSYNVYYTKLSSSGTEVQLVQSGGGLVQPGRSLRLSCAASGFTFDDYAMHWVRQAPGKGLEWVSGISWNSGSIGYADSVKGRFTISRDNAKNSLYLQMNSLRAEDTALYYCAKEGDSSGWSPDYWGQGTLVTVSSAS
notes: also called S72; S72A2r1
B4: phage-displayed ScFv7 (phage clone 12) (scFv)
scFv: QSVLTQPPSVSAAPGQKVTISCSGSSSNIGNNYVSWYQQLPGTAPKLLIYDNNKRPSGIPDRFSGSKSGTSATLGITGLQTGDEADYYCGTWDSSLSAGVFGGGTKLTVLGSGGSTITSYNVYYTKLSSSGTEVQLVQSGGGLVQPGRSLRLSCAASGFTFDDYAMHWVRQAPGKGLEWVSGISWNSGSIGYADSVKGRFTISRDNAKNSLYLQMNSLRAEDTALYYCAKEGDSSGWSPDYWGQGTLVTVSSAS
notes: The phage coat protein fusion partner is not described; also called phage single clone No. 12
B5: human anti-ERα36 ScFv3 (purified, re-natured) (scFv)
scFv: QSVLTQPASVSGSPGQSITISCTGTSSDVGGYNYVSWYQQHPGKAPKLMIYDVSKRPSGVSNRFSGSKSGNTASLTISGLQAEDEADYYCSSYTSSSTLVFGGGTKLTVLGSGGSTITSYNVYYTKLSSSGTEVQLVQSGGGVAQPGRSLRLSCAASGITFNSYGMHWVRQAPGKGLEWVAVMPYDGSNEYYADSVKGRFTISRDNSKNTLYLQMNSLRAEDTAVYYCAKGSGMVQLWADAFDVWGQGTMVTVSSAS
notes: also called S33; S33A2r1

Assays:
[1] = target: T1, biotinylated ERα36 (chemically synthesised target peptide, SEQ ID NO:2) (human, labeled with biotin (site not stated)); assay: ELISA on biotinylated ERα36 (streptavidin plate), ScFv 0.28 µg/ml, well 1
T1 construct: also called biotinylated ER36; biotinylated ERα36 peptides
T1 peptide: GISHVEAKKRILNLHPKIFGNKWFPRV
Protocol: (§1) Streptavidin-coated 96-well plates were washed twice with PBS. Biotinylated ERα36 (final concentration of 20 μg/ml) was added into each testing well. The plates were incubated for 2 h at room temperature and washed three times with PBST. Re-natured ScFv samples (100 μl, S14A1r1, S24A2r2, S33A2r1, S41A3r3, S53A1r1, S66A1r1 and S72A2r1) were added into the testing wells respectively. Each ScFv was diluted five times in five gradients, and two parallel wells were loaded with each ScFv at each gradient. The plates were incubated at 37° C. for 1 h. The plates were washed three times with PBST, followed by addition of 100 μl anti-His-6 mouse monoclonal antibody (1:2000 dilution) per well and 1 h incubation at 37° C. The plates were washed three times with PBST, followed by addition of 100 μl goat anti-mouse-HRP (1:2500 dilution) per well and 1 h incubation at 37° C. The plates were washed six times with PBST, followed by addition of 100 μl OPD to develop under the protection from light. The reactions were terminated by adding 50 μl 2M H₂SO₄ to each well, and data were collected by microplate reader at 490 nm.
(§2) One positive control and three negative controls were performed in parallel. The positive control used rabbit anti-ER multi-clonal antibody serum in replacement of the ScFv re-natured sample and goat-anti-rabbit-HRP in replacement of goat-anti-mouse HRP.

[2] = target: T2, recombinant human ERα36 (hER-α36, SEQ ID NO:1) expressed in HEK293 cells (human, UniProt P03372 174-457); assay: Western blot on lysates of ERα36-expressing HEK293 cells, anti-His-HRP
T2 construct: Present in lysates of ERα36-expressing HEK293 cells, separated by SDS-PAGE and blotted on PVDF (Western blot); also called recombinant ERα36
T2 sequence: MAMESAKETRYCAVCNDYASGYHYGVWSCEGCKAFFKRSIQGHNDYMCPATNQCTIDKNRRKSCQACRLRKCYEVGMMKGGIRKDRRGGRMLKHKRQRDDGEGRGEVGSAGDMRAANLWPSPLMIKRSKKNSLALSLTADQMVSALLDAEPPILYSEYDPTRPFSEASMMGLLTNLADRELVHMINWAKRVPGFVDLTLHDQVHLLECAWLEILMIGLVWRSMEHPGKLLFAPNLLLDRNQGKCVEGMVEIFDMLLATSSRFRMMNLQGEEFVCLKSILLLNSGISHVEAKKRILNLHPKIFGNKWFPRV
Protocol: ScFv1˜ScFv7 obtained after purification and renaturation were characterized using Western Blot. HEK293 cells were artificially constructed to express recombinant ERα36. Human breast cancer cells SK-BR-3 and ERα36-expressing HEK293 cells were cultured, harvested, and lysed by lysis buffer to obtain the cell lysates respectively. 20 μg/lane of the lysates were then loaded for SDS-PAGE. After electrophoresis, the protein samples were electronically transferred to PVDF membrane labeled with ScFv1˜ScFv7 respectively. The membranes were blocked with non-fat milk and anti-His-HRP was added to show the resulting images (FIG. 16).

[3] = target: T1, biotinylated ERα36 (chemically …); assay: ELISA on biotinylated ERα36 (streptavidin plate), ScFv 0.28 µg/ml, well 2
Protocol: as §1, §2

[4] = target: T1, biotinylated ERα36 (chemically …); assay: phage ELISA, biotinylated ERα36 on neutravidin plate, well 3
Protocol: (§3) Neutravidin-coated plates (purchased from Pierce) were washed with washing buffer (PBS containing 0.1% Tween-20) and all wells of the plates were blocked by incubating in blocking buffer at 4° C. for 1-2 h. Then the blocked plates were taken away from the blocking buffer, washed six times with washing buffer and dried upside-down. Biotinylated ERα36 in PBS (100 μl) was added to each testing well of the plates, incubated for 1-2 h at room temperature and removed. The plates were washed once with washing buffer. Phage solution (100 μl) was added per well and incubated for 1-2 h at room temperature. The plates were washed six times with the washing buffer. HRP-conjugated rabbit anti-M13 antibody (purchased from GE Healthcare) was diluted by 1:5,000 in blocking buffer. The diluted HRP-conjugated rabbit anti-M13 antibody (100 μl) was added to each well and incubated for 1 h at room temperature followed by washing six times with washing buffer.
(§4) HRP substrate solution (100 μl) was added to each testing well and incubated for 30 min at room temperature. The signals were detected using a microplate reader at 490 nm. […] The positive controls were plates coated with M13 phage and detected with HRP-conjugated anti-M13 antibodies.

[5] = target: T1, biotinylated ERα36 (chemically …); assay: phage ELISA, biotinylated ERα36 on neutravidin plate, well 2
Protocol: as §3, §4

[6] = target: T1, biotinylated ERα36 (chemically …); assay: phage ELISA, biotinylated ERα36 on neutravidin plate, well 1
Protocol: as §3, §4

Binder | OD490 [1] | binding result [2] | OD490 [3] | ELISA Signal (OD490) [4] | ELISA Signal (OD490) [5] | ELISA Signal (OD490) [6]
B1 | 0.093 OD490 | binds | 0.09 OD490 | – | – | –
B2 | – | binds | – | – | – | –
B3 | – | binds | – | – | – | –
B4 | – | – | – | 0.383 OD490 | 0.388 OD490 | 0.381 OD490
B5 | 0.159 OD490 | binds | 0.171 OD490 | – | – | –
